Patent US20220401537A1

Target: recombinant human ROR1 ectodomain containing a C-terminal Avi tag, biotinylated (human) (UniProt Q01973)
Assay: cell-based or functional assay

Chain of UniProt Q01973 (Q01973 30-406): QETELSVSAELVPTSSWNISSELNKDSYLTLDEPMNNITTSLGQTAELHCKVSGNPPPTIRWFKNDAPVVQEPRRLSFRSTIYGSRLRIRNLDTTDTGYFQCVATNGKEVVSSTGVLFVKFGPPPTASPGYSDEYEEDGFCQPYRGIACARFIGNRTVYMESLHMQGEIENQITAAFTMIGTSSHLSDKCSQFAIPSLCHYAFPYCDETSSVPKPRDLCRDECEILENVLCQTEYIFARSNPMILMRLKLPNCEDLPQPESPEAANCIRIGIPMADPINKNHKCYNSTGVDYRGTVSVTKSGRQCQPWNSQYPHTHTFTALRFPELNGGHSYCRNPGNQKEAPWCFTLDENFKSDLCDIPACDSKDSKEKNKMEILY

Substance: ROR1-specific 4-1BB/CD3ζ CAR backbone containing a StrepTag II (STII) sequence and two G4S linkers inserted between the R12 scFv and IgG4 hinge (from UniProt P10747 153-179; Q07011 214-255; P20963 52-163)
- fraction of CAR T cells activated (Ca2+ mobilization, Fluo-4) during 20 minutes on a ROR1-containing bilayer: < 10%
